Results taken from patent publication US6156727A, “Anti-atherosclerotic peptides and a transgenic mouse model of antherosclerosis” (UAB Research Foundation, priority 1997, dated 2000).
“And” between values parts separate entries of the source, which are not always exact repeats. Equal values may be shown once. Read-outs that look alike come from different tables or passages of the source. No end group written: not given here.

Columns and labels:
[1] = test system: spontaneous lesions in apoE-knockout mice; assay: IP administration of modified 18A peptide to apoE-knockout mice on normal diet; assay type: in vivo; conditions: for aortal lesions: IP administration, apoE-knockout mice
Experimental: Similar experiments were completed in apoE-knockout animals. The peptide used was a modified 18A of the present invention with the sequence:
This peptide was administered to animals on a normal diet, to determine if the intraperitoneal administration of this peptide would inhibit lesions that these animals produce spontaneously, even without high fat diet administration. The lesions in this case is different than that produced after sixteen weeks of high fat diet administration in 57BL6/J mice.

[2] = test system: plasma cholesterol in B16/SJL mice; assay: Effect of peptides on total cholesterol, high fat diet administered to B16/SJL mice; assay type: in vivo
Experimental: Peptide injections (50 μg/animal/day for 16 weeks).

[3] = test system: diet administered atherosclerosis in peptide transgenic mice; assay: In vitro fertilized peptide-transgenic mice on high fat diet for 16 weeks (plasma peptide, cholesterol, aortic cross-section); assay type: in vivo; conditions: transgenic IVF mice, retroorbital bleed, Western analysis; some of the mice
Excerpt: The peptide gene was then cloned into the MunI site of the apoE-promoter that is specific for expression of the peptide/protein in the liver. SalI-Spel fragment of the apoE promoter to which the peptide gene was subcloned was microinjected into mouse oocytes to produce transgenic mice. […] Further transgenic mice were generated from these two founders and analysed for the presence of peptide gene.
This produced a number of animals with the peptide gene present in different amounts. Western analysis using the antibody produced for the chemically synthesized peptide indicated the presence of peptide in different amounts (FIG. 4).
The animals were then administered TeckLad diet that is known to produce foam cell lesions in 57BL6/J mice when administered for sixteen weeks. At the end of sixteenth week, mice were sacrificed, plasma was collected and the hearts were harvested. The aortal cross-sections were stained with Oil Red O that stains lipid laden fatty streaks. The plasma samples were subjected to lipoprotein analysis. The results of plasma analysis indicated clearly that the profiles were different from each other and some of the profiles looked very similar to the control mice on the normal diet, with the cholesterol values around ≤100 mg/dl.
Blood from the in vitro fertilized animals were obtained from the retroorbital bleed and red cells were separated by centrifugation. […]

[4] = IP administration of radiolabelled 18A-Pro-18A and human apo A-I in mice, plasma radioactivity; assay type: in vivo, 57BL6/J mice; conditions: for amount of the injected dosage present in the blood: 4 or 5 hours following IP injection, based on specific activity; for Total plasma cpm as a percent of the injected cpm: IP, radiolabelled, 4 or 5 hours (respectively) after injection, plasma volume assumed 4.2% of body weight; for presence of the radiolabel in isolated lipoprotein fractions (FPLC): after IP injection; for form of radioactivity in the plasma (TCA precipitation and FPLC analysis): early time points (up to 5 hours)
Experimental: Since the peptide administration experiments involves intraperitoneal administration of peptide, the effect of administration of radiolabelled peptide and human apo A-I was compared in mice. Briefly, approximately 200,000 cpm of either the peptide (4.4 μg) or human apo A-I (3.0 μg) were administered intraperitoneally into 57BL6/J mice and blood samples were taken by retro-orbital bleeding from anesthetized animals. The final time point was taken from the axilla of anesthetized animals. Radioactivity was measured in plasma sample, and was calculated as total plasma cpm, assuming plasma volume as 4.2% of the body weight.
Based on the specific activity of the radiolabelled materials, approximately […] of the injected dosage was present in the blood after 4 or 5 hours following the injection. […] It should be noted that the major lipoprotein in 57BL6/J mice is HDL.
Thus, intraperitoneal administration allows for the peptide or human apoA-I to be released into plasma gradually. Intraperitoneal administration of the peptide is therefore feasible

[5] = test system: diet-induced lipid accumulation in C57 BL6/J mice; assay: IP administration of peptide for sixteen weeks to high fat diet administered C57BL 6/J mice (aortal histology, total cholesterol, mortality); assay type: in vivo
Experimental: C57BL mice were administered a high cholesterol diet (modified Thomas Hartcroft) and were divided into two groups. Group I received intraperitoneal administration of saline each day for 16 weeks. Group II received intraperitoneal administration of the peptide solution (μg/mice/day) for 16 weeks. At the end of the experiment, mice were sacrificed and aortas were harvested, cross-sectioned and stained with Oil Red O. FIGS. 1A-1F show the cross sections of the aortas from animals 1 and 2.
A dosage of peptide to be injected was selected based on the in vivo studies conducted using 18A to inhibit the LPS-induced toxicity in mice (Levine, et al., PNAS, 1993, 90:12040-12044). In these experiments, […] of the peptide 18A was used per mouse to inhibit endotoxin-induced death of mice. Because of the solubility of the peptide 37pA, and since it was desirable to maintain the same volume used by Levine et al, […] of peptide per mouse per day was injected.
Peptide 18A-Pro-18A dissolved in sterile saline was administered IP everyday for sixteen weeks 11 animals on high fat diet. Control animals on high fat diet were administered saline for sixteen weeks. At the end of sixteen weeks, animals were sacrificed and histology of hearts were done. The mortality in both the groups were similar (only three in each groups) indicating no toxicity due to peptide 18A-Pro-18A administration.

[6] = Bilayer stabilization (transition temperature of DOPE); assay type: physicochemical
Excerpt: (§1) 2. The amphipathic helical peptide 18A-Pro-18A is the closest mimic of human apoA-I as a bilayer stabilizer. Bilayer stabilizers increase the transition temperature of DOPE whereas destabilizing molecules decrease the transition temperature. Such a destabilization can cause the inverted phase lipids (or hexagonal phase). Formation of this by the lytic peptide can be inhibited by human apoA-I or class A peptides.

[7] = Stability of peptide lipid complex; assay type: physicochemical; conditions: compared to 18A-Ala-18A and 18A-18A
Excerpt: 1. The tandem repeating class A amphipathic helix linked by a proline forms an optimal arrangement for lipid association.
as §1

[8] = test system: HIV-I Gp4l-induced cell fusion; assay: HIV-I Gp41-induced cell fusion; assay type: cell-based
neutrophil activation = assay: Neutrophil activation; assay type: cell-based
[9] = BSA-induced lysis of fatty acid-containing vesicles
[10] = test system: human placental lactogen synthesis; assay: Stimulation of human placental lactogen synthesis; assay type: cell-based
cholesterol-loaded cells = assay: Efflux of phospholipid and cellular cholesterol from cholesterol-loaded cells; assay type: cell-based
Excerpt: 4) The amphipathic helical peptide 18A-Pro-18A mimics HDL in clearing cellular cholesterol. The removal of cholesterol from peripheral cells by HDL is thought to initiate the process of reverse cholesterol transport. HDL is capable of stimulating the net release of cholesterol from cells. This process thus inhibits the formation of foam cells, the hallmark of atherosclerosis.

[11] = molecular target: T1, HDL receptor on rat adrenal cells (Rattus norvegicus, UniProt P97943); assay: Competition with HDL for binding to rat adrenal cells
T1 construct: endogenous in cells; host or cells: rat adrenal cells
T1 sequence (P97943 1-509): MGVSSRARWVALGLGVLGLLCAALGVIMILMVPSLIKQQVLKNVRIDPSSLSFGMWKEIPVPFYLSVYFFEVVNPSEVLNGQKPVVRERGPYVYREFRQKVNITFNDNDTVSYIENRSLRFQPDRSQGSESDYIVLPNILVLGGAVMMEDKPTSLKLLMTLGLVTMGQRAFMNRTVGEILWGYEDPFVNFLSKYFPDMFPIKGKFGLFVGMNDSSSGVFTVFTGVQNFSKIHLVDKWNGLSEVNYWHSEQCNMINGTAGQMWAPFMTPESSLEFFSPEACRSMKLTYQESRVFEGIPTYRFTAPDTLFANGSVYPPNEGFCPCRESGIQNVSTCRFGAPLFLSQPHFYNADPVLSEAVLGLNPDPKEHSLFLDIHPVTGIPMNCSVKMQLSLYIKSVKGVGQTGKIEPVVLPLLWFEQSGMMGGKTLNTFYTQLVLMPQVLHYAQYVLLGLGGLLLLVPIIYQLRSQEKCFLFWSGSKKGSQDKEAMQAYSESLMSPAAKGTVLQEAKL
Excerpt: 5) The amphipathic helical peptide 18A-Pro-18A competes with HDL for binding to rat adrenal cells. Recently, it has been shown that HDL delivers cholesterol to the cells through class B scavenger receptor SRBI. This receptor binds HDL with high affinity and is primarily expressed in the liver and in nonplacental steroidogenic tissues.

[12] = Turnover (clearance curves) in rats; conditions: 18A-Pro-18A versus human apo A-I
[13] = rat, in vivo

In the case of “Ac-DWLKAFYDKVFEKFKEFF-NH2 [5F, Ac-Asp-Trp-Leu-Lys-Ala-Phe-Tyr-Asp-Lys-Val-Phe-Glu-Lys-Phe-Lys-Glu-Phe-Phe-NH2]”, the aortal lesions ([1]; listed as SEQ No. 2) is reported as “effective”, the aortal lesions ([1]; listed as modified 18A) is reported as “virtually no lesion” and the “VLDL-density particles in cholesterol profile compared to control animals” value ([1]; after sixteen weeks, IP, normal diet) is reported as “decreased considerably”. For the same substance, the Total cholesterol ([2]; high fat diet, 50 μg/animal/day for 16 weeks, individual mice (Table III)) was 156 and 161 and 182 and the “levels of plasma cholesterol” value ([2]; peptide injections 50 μg/animal/day for 16 weeks) was “markedly decreases”.

For “DEPDWLKAFYDKVAEKLKEAFPDWLKAFYDKVAEKLKEAF [Asp-Glu-Pro-18A-Pro-18A]”, the “amount of peptide in the plasma” value [3] was “approximately 20 μg/ml”.

For “DWLKAFYDKVAEKLKEAFPDWLKAFYDKVAEKLKEAF [18A-Pro-18A, class A amphipathic helical peptide 18A as head-to-tail dimer with a proline incorporated]”, the “amount of the injected dosage present in the blood” value [4] was “approximately 1 mg”, the “Total plasma cpm as a percent of the injected cpm” value [4] was 25.5% and the “presence of the radiolabel in isolated lipoprotein fractions (FPLC)” value [4] was “exclusively in HDL”. For the same substance, the “form of radioactivity in the plasma (TCA precipitation and FPLC analysis)” value [4] was “present in the intact peptide/protein”, the “antibody to the peptide” value ([5]; IP every day for sixteen weeks) was “no antibody was detected” and the “toxicity (mortality compared with saline group)” value ([5]; IP every day for sixteen weeks, high fat diet) was “no toxicity”. For the same substance, the “foam cells in cross sections from the aorta” value ([5]; IP over 16 weeks, high fat diet, FIG. 1C) was “no foam cells can be seen”, the “lipid accumulation in aortal cross sections compared to the control group” value ([5]; IP sixteen weeks, high fat diet, Oil Red O) was “less lipid accumulation” and the Total cholesterol ([5]; mice on high fat diet and peptide administered, individual mice (Table I)) was 156 mg/dL and 161 mg/dL and 182 mg/dL. For the same substance, the bilayer stabilizing property [6] was “most bilayer stabilizing property”, the stability of complex [7] was “most stable complex” and the “effectiveness in HIV-I Gp4l-induced cell fusion” value [8] was “most effective peptide”. For the same substance, the “effectiveness in neutrophil activation” value (neutrophil activation) was “most effective peptide”, the “effectiveness in BSA-induced lysis of fatty acid-containing vesicles” value [9] was “most effective peptide” and the “effectiveness in stimulating human placental lactogen synthesis” value [10] was “most effective peptide”. For the same substance, the “efflux of phospholipid and cellular cholesterol” value (cholesterol-loaded cells) was “effectively effluxes”, the “competition with HDL for binding” value [11] was “competes” and the clearance curves [12] was “virtually superimposable”.

With “human apo A-I: human apolipoprotein A-I, protein component of HDL, used as comparator” the “amount of the injected dosage present in the blood” value [4] was “approximately 1 mg”, the “Total plasma cpm as a percent of the injected cpm” value [4] was 32% and the “presence of the radiolabel in isolated lipoprotein fractions (FPLC)” value [4] was “exclusively in HDL”. The “form of radioactivity in the plasma (TCA precipitation and FPLC analysis)” value [4] was “present in the intact peptide/protein” and the clearance curves [13] was “virtually superimposable”.
